Measured values: patent US10208288B2, “Differentiation of human embryonic stem cells into pancreatic endocrine cells” (Janssen Biotech, Inc., priority 2012, dated 2019)

Tested on: cells of the human embryonic stem cell line H1 differentiated to stage 5
Assay: Immunostaining for insulin protein expression at the end of Stage 5
Format: cell-based
Details: 50 or 100 ng/ml for three days at stage 5, immunostaining vs control; FIG. 2, FIG. 3
Protocol: Cells of the human embryonic stem cell line H1 (hESC H1, passage 40) were seeded as single cells at 1×10^5 cells/cm^2 on MATRIGEL™ (1:30 dilution; BD Biosciences, NJ)-coated dishes in mTeSR®1 media supplemented with 10 μM of Y27632. Forty-eight hours post seeding, cultures were washed in incomplete PBS (phosphate buffered saline without Mg or Ca). Cultures were differentiated into pancreatic endoderm/endocrine lineages as follows: • a) Stage 1 (Definitive Endoderm (DE)—3 days): Cells were cultured for one day in stage 1 media (see Example 1, above). Cells were then cultured for an additional day in MCDB-131 medium supplemented with 0.1% fatty acid-free BSA, 0.0012 g/ml sodium bicarbonate, 1× GlutaMax™, 4.5 mM D-Glucose, 100 ng/ml GDF8, and 0.1 μM MCX compound. […]

B1: Ephrin-A3: Ephrin ligand protein from R & D systems (protein, UniProt P52797 23-214, looked up)
Ephrin-A3: QGPGGALGNRHAVYWNSSNQHLRREGYTVQVNVNDYLDIYCPHYNSSGVGPGAGPGPGGGAEQYVLYMVSRNGYRTCNASQGFKRWECNRPHAPHSPIKFSEKFQRYSAFSLGYEFHAGHEYYYISTPTHNLHWKCLRMKVFVCCASTSHSGEKPVPTLPQFTMGPNVKINVLEDFEGENPQVPKLEKSISG
B1 was tested, and the “protein expression of insulin” value was “significantly enhanced”.
